From PMC10348681, “Reversible phase separation of ESCRT protein ALIX through tyrosine phosphorylation” (Science Advances, 2023)
Where a chain is given by its changes, count along the chain named. Names and notes keep the numbering of the source. One block for each binder: values may come before it.

What was measured:
Details in all cases: both partners purified
[1] = biological target: T1, ALIX1−868∗^Strep (full-length ALIX with P801G and a C-terminal strep tag) (UniProt Q8WUM4 1-868, P801G); assay: NMR titration; 30 μM 15N/2H-labeled CHMP4 construct with 90 μM unlabeled ALIX1-868* Strep; cross-peak heights; 30°C, 20 mM sodium phosphate (pH 6.5), 1 mM TCEP, 2 mM EDTA
T1 construct: the asterisk denotes P801G; Monomeric by AUC; source: E. coli, purified (Strep-Tactin Sepharose, Q-Sepharose HP, Superdex 200); not shown: Strep tag, C-terminal, kept
T1 sequence (looked up): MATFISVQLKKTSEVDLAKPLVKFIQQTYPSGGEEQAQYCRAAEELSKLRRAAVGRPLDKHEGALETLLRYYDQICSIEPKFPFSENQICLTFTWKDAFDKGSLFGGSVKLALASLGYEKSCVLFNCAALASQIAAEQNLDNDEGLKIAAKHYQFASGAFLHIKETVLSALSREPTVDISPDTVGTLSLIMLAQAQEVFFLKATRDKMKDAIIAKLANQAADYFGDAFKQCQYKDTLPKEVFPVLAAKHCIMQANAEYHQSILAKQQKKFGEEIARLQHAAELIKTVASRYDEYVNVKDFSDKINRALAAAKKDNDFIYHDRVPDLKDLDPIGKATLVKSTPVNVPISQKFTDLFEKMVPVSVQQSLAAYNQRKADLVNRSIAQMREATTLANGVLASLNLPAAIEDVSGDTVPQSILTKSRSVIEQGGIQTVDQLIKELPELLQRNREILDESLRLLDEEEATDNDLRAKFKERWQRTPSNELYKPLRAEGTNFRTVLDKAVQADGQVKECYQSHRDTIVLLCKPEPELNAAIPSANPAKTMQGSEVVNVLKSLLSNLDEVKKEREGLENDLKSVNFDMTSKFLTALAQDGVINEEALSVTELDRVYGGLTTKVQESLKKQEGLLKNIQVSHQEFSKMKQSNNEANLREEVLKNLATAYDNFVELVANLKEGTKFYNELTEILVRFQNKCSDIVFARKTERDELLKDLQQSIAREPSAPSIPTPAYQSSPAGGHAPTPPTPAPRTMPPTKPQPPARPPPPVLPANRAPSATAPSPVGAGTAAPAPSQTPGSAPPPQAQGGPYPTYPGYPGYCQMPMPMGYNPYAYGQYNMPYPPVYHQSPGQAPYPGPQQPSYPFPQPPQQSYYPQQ

[2] = biological target: T1, ALIX1−868∗^Strep (full-length ALIX with …); assay: ITC; as the other ITC but with 150 mM NaCl; CHMP4C construct injected into ALIX1-868* Strep; 25°C; for the AAA mutant 1500 μM into 300 μM ALIX
[3] = biological target: T1, ALIX1−868∗^Strep (full-length ALIX with …); assay: ITC; 300 to 500 μM CHMP4 construct injected into 30 to 50 μM ALIX1-868* Strep or Bro1 in the cell; 25°C; 20 mM sodium phosphate (pH 6.5), 1 mM TCEP, 2 mM EDTA; independent site binding model
[4] = biological target: T2, ALIX-Bro1 (Bro1 domain of ALIX) (UniProt Q8WUM4 3-392); assay: as above
T2 construct: Bro1 domain of ALIX; residues up to 349 are spoken of
T2 sequence (looked up): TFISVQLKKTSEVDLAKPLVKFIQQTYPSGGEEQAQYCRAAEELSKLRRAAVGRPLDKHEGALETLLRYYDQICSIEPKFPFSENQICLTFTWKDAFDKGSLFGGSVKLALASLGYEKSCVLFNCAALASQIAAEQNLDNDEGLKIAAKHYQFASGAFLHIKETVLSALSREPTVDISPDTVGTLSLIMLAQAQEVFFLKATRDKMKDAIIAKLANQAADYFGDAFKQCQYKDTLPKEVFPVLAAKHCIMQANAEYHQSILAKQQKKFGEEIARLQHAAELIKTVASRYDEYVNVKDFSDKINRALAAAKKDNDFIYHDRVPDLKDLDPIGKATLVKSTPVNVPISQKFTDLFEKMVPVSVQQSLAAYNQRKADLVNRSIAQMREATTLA

binding result [1]: binds
B1: CHMP4C121−233^S191C,AAA (domain or fragment, UniProt Q96CF2 121-233, looked up)
chain: ENMDLNKIDDLMQEITEQQDIAQEISEAFSQRVGFGDDFDEDELMAELEELEQEELNKKMTNIRLPNVPSCSLPAQPNRKPGMSSTARRSRAASSQRAEEEDDDAKQAAAAAT
notes: codon-optimized synthetic gene; also called CHMP4C with three alanine substitutions in its α6 motif (I225A, L228A, W231A); not shown: GB1, N-terminal, cleaved

Kd [2]: 6100 ± 700 nM | Kd [3]: 600 ± 100 nM | stoichiometry N [3]: ~1 | Kd [4]: 900 ± 100 nM
B2: CHMP4C121−233^S191C (domain or fragment, UniProt Q96CF2 121-233, looked up)
chain: B1 chain with A105I, A108L, A111W
notes: codon-optimized synthetic gene; Monomeric by AUC; also called charged multivesicular body protein 4C C-terminal fragment; not shown: GB1, N-terminal, cleaved

Kd [3]: 900 ± 100 nM | stoichiometry N [3]: ~1 | Kd [4]: 1000 ± 200 nM
B3: CHMP4B121−224^S184C (domain or fragment, UniProt Q9H444 121-224, looked up)
chain: DNMDIDKVDELMQDIADQQELAEEISTAISKPVGFGEEFDEDELMAELEELEQEELDKNLLEICGPETVPLPNVPSIALPSKPAKKKEEEDDDMKELENWAGSM
notes: codon-optimized synthetic gene; Monomeric by AUC; also called charged multivesicular body protein 4B C-terminal fragment; not shown: GB1, N-terminal, cleaved
